This is an account of results in patent US20230279107A1 (ZHEJIANG RUIJIAMEI BIOTECH, published 2023).

The target of the experiment is T1, CD19 expressed on Hela cells (stable cell line Hela-CD19) (human, UniProt P15391 20-556).
T1 sequence (looked up): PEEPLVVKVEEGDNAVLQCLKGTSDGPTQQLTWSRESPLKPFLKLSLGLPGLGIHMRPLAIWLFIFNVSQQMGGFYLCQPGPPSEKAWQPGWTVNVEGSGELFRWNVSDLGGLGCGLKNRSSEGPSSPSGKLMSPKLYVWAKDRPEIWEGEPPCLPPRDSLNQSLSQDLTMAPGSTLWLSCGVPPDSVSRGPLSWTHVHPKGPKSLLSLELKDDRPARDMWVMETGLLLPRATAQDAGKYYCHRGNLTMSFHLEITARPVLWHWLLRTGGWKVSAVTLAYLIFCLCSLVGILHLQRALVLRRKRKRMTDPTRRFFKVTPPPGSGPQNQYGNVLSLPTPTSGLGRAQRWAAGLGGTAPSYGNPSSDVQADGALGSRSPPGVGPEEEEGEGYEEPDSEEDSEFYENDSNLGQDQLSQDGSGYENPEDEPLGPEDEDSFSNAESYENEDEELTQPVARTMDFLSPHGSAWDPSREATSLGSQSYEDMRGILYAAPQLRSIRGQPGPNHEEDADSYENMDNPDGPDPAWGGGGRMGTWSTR
Briefly: cell-based or functional assay.

B1: Humanized CD19-4-1BB-CD3-CAR protein (CD8 leader sequence-CD19 scFv (VL-Linker-VH)-CD8 hinge-CD8 TM-41BB-CD3-zeta), expressed on DNT cells (other)
chain: DIQMTQSPSSLSASVGDRVTITCRASQDISKYLNWYQQKPGKAPKLLIYHTSRLHSGVPSRFSGSGSGTDFTLTISSLQPEDFATYYCQQGNTLPYTFGGGTKVEIKGSTSGSGKPGSGEGSTKGQVQLQESGPGLVKPSETLSLTCTVSGGSLPDYGVSWIRQPPGKGLEWIGVIWGSETTYYNSALKSRVTISVDTSKNQFSLKLSSVTAADTAVYYCAKHYYYGGSYAMDYWGQGTLVTVSSTTTPAPRPPTPAPTIASQPLSLRPEACRPAAGGAVHTRGLDFACDIYIWAPLAGTCGVLLLSLVITLYCKRGRKKLLYIFKQPFMRPVQTTQEEDGCSCRFPEEEEGGCELRVKFSRSADAPAYKQGQNQLYNELNLGRREEYDVLDKRRGRDPEMGGKPRRKNPQEGLYNELQKDKMAEAYSEIGMKGERRRGKGHDGLYQGLSTATKDTYDALHMQALPPR
As for B1, the “specific killing of Hela-CD19 by CAR19-DNT cells on day 8 of culture (RTCA, effector-target ratio 2:1, 18 h)” value was 98.5% and the “specific killing of Hela-CD19 by CAR19-DNT cells on day 13 of culture (RTCA, effector-target ratio 2:1, 18 h)” value was 98.1%.
